Tests used:
human airway epithelia [1] = experiment: MD-2 mRNA expression in human airway epithelia after stimuli (real time PCR); type: cell-based; settings: 18–24 hr stimulation
Experimental: Fold increase in MD-2 mRNA expression was quantified using real time PCR. FIG. 10 represents the results from three independent experiments on three different epithelial preparations. * indicates p<0.05.
Real-time PCR was employed to detect human β-defensin-2 and MD-2 and to quantify changes in expression. Real-time quantitative PCR was performed using a sequence detector (ABI PRISM 7700, Applied Biosystems, Foster City, Calif.) and Taqman technology (Roche Molecular Diagnostic Systems) following the manufacturer's protocols (Bustin, 2000). The primers and probes were designed using the Primer Express program (Applied Biosystems). For MD-2, the primers were-forward5′-[…]-3′ (SEQ ID NO:11), reverse 5′-GCATTTCTTCTGGGCTCCC-3′ (SEQ ID NO:12), and probe 5′-[…]-3′ (SEQ ID NO:13). For HBD-2, the forward primer was-5′-[…]-3′ (SEQ ID NO:14), the reverse primer-5′-[…]-3′ (SEQ ID NO:15), and the probe was-5′-[…]-3′ (SEQ ID NO:16). Both probes contain a fluorescent reporter (6-Carboxyfluorescein [FAM]) at the 5′ end and a fluorescent quencher (6-Carboxytetramethylrhodamine [TAMRA]) at the 3′ end. As an internal control for normalization, human GAPDH real-time quantitative PCR was conducted in every reaction. The primers and probes were purchased from Roche Molecular Diagnostic Systems. The PCR fragments were amplified for 40 cycles (15 sec at 95° C. and 1 min at 60° C.). […]

human airway epithelia [2] = experiment: Endotoxin responsiveness of primary human airway epithelia (HBD-2 mRNA real time PCR, NF-κB-luciferase); type: cell-based; settings: IL-1β 100 ng/ml, 24 hr, real time PCR
Experimental: FIG. 6 depicts endotoxin responsiveness of well-differentiated primary cultures of human airway epithelia. Polarized epithelia were treated with NTHi LOS (100 ng/ml), sCD14 (100 ng/ml) and LBP (250 ng/ml) by apical application in a 50 μl volume. Twenty-four hours later, epithelia were harvested and analyzed for HBD-2 mRNA expression by real time PCR. As depicted in FIG. 6A, apical stimulation of airway epithelia with NTHi LOS induced little change in HBD-2 MRNA expression (2 epithelia/trial, n=3 different donors, * indicates p<0.05). In contrast, IL-1β markedly induces HBD-2 mRNA. FIG. 6B depicts the polarity of epithelial responses to IL-1β and NTHi LOS. […]
FIG. 9 depicts the effects of MD-2 complementation on endotoxin responsiveness in human airway epithelia. […] Fold increase in HBD-2 mRNA expression were quantified by real time PCR. […] NF-κB-luciferase activity was measured 24 hr following endotoxin treatment (n=5 epithelia/condition, * indicates p<0.05). […] 24 hr after endotoxin treatment, HBD-2 expression was quantified by real time PCR. […]
Well differentiated human airway epithelia were treated with N. meningitidis LOS-sCD14 (5 ng LOS/ml), with or without the addition of cell culture supernatants containing rMD-2. […] HBD-2 expression was quantified by real time PCR. […]
Real-time PCR was employed to detect human β-defensin-2 and MD-2 and to quantify changes in expression. […]

TLR4 = target: T1, TLR4 (Homo sapiens, UniProt O00206+Q9Y6Y9); experiment: HEK cell activation assay: extracellular IL-8 by ELISA; type: cell-based
T1 construct: host or cells: HEK293 stably transfected with TLR4 (HEK/TLR4)
T1 sequence (O00206 24-839): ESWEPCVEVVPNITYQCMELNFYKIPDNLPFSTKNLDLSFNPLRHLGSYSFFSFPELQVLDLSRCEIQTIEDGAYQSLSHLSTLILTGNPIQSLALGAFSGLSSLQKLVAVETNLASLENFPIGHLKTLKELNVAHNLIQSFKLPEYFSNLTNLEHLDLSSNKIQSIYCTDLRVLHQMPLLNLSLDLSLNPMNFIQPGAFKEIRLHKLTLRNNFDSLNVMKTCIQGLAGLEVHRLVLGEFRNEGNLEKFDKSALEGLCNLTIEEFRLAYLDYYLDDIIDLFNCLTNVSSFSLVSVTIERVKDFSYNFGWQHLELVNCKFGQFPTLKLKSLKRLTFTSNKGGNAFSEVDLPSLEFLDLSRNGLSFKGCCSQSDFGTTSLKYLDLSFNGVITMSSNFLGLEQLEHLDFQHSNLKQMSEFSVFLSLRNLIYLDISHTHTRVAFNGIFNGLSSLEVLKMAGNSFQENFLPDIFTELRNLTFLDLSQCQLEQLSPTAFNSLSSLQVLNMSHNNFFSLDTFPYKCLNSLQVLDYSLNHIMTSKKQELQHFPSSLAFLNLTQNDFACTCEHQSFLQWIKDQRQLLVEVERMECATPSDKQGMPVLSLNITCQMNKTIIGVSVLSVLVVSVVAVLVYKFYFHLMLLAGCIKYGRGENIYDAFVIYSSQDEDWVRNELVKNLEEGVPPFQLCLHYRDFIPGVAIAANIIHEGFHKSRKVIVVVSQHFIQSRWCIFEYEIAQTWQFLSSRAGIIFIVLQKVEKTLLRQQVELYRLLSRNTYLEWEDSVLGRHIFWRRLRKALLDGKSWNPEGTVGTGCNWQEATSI
T1 sequence (Q9Y6Y9 19-160): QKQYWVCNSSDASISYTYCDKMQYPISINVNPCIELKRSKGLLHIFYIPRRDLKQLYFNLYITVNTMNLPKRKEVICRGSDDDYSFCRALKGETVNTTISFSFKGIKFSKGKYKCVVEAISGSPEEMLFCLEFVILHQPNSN
Excerpt: Conditioned insect cell culture medium containing soluble, polyhistidine-tagged recombinant wild-type (wt) or C95Y mutant MD-2 were generated according to the method of Viriyakosol et al. (2001). A human embryonic kidney cell line (HEK293) that stably expresses TLR4 (HEK/TLR4), but lacks both CD14 and MD-2 (Yang et al., 2000), was used to evaluate the effect of MD-2 on the ability of lipooligosaccharide (LOS) to interact with TLR4 and promote activation.
FIG. 1 depicts the expression and bioactivity of recombinant MD-2-His6. FIGS. 1A and 1B depict SDS-PAGE immunoblots of control culture medium (FIG. 1A, lane 1) or medium from HiFive cells infected with recombinant baculovirus encoding wt (FIG. 1A, lane 2; FIG. 1B, lanes 1–3) or C95Y MD-2 (FIG. 1B, lane 4). MD-2 was detected using anti-(His)4 antibody. All samples represent 1 μl of culture medium except B, lanes 2 and 3, which represent 0.3 and 0.1 μl and A, lane 3, which represents molecular weight markers. In FIG. 1C, HEK/TLR4 cells were incubated in HEPES-buffered HBSS+/0.1% albumin with [^14C]-LOSagg (3 ng/ml)+/−LBP (30 ng/ml) and/or (60 μl) culture medium containing wt MD-2 (MD-2) (open bars); LOSagg+LBP and sCD14 (250 ng/ml)+/−wt (closed bars) or C95Y “MD-2” (striped bars), or [^14C]-LOS-sCD14 (2 ng LOS/ml)+/−wt or C95Y “MD-2” (closed bars). After overnight incubation, extracellular IL-8 was assayed by ELISA. In FIG. 1D, HEK/TLR4 cells were incubated with increasing amounts of wt (▪) or C95Y (◯) MD-2+[^14C]-LOS-sCD14 (2 ng/ml) and cell activation measured. Results shown are from one experiment (duplicate samples) representative of four independent experiments.
In FIG. 2, a bioactive complex (Mr˜25,000) containing MD-2 and [^14C]-LOS is formed by incubation of [^14C]-LOS-sCD14 with wt, but not C95Y, MD-2. In FIG. 2A, dialyzed control insect cell medium (◯) or medium containing wt (♦) or C95Y ( ? ) MD-2 was incubated for 30 min, 37° C. with (1:1 vol/vol) [^14C]-LOS-sCD14 in HBSS+, 10 mM HEPES and chromatographed on Sephacryl S100. Column fractions were analyzed for [^14C]-LOS. Identical results were obtained in analytical (5 ng [^14C]-LOS/ml+200 μl culture medium) or more preparative runs (reagents concentrated 20×). In FIG. 2B, peak fractions (Mr˜25,000) from treatment of [^14C]-LOS-sCD14 with wt MD-2 (FIG. 2A) were re-chromatographed on S100 in HBSS+, 10 mM HEPES without HSA; recovery of [^14C]-LOS was >80%. In FIG. 2C, HEK (□) or HEK/TLR4 (▪) were incubated overnight with the indicated amounts of LOS added as purified Mr˜25,000 (LOS-MD-2) complex. Cell activation was measured by IL-8 accumulation. Results shown correspond to one experiment, in duplicate, representative of three similar experiments. FIGS. 2D and 2E depict adsorption and elution of bioactive Mr˜25,000 complex to HisBind resin. Peak fractions of the purified complex (FIG. 2B; 10 ng [^14C]-LOS) were dialyzed against PBS and incubated with HisBind resin (0.125 ml) for 1 hr at 25° C. and processed as described in Methods. Non-adsorbed (Flow-thru) and adsorbed material eluted with 200 mM imidazole were precipitated with trichloroacetic acid to concentrate sample for SDS-PAGE/immunoblot analysis. […]
Purified [^14C]-LOSagg or [^14C]-LOS-sCD14 (3 ng LOS/ml)+/−indicated proteins (30 ng/ml LBP, 250 ng/ml sCD14, 60 μl culture medium) were incubated at 37° C. for 30 min. After this incubation, samples were analyzed by gel filtration chromatography to monitor formation of [^14C]-LOS-MD-2 and by incubation with HEK/TLR4 cells to measure cell activation. […]

MD-2 = experiment: Formation of [^14C]-LOS-MD-2 complex monitored by gel filtration chromatography; type: binding, human; settings: 30 min, 37° C., Sephacryl S100
Experimental: In FIG. 2, a bioactive complex (Mr˜25,000) containing MD-2 and [^14C]-LOS is formed by incubation of [^14C]-LOS-sCD14 with wt, but not C95Y, MD-2. In FIG. 2A, dialyzed control insect cell medium (◯) or medium containing wt (♦) or C95Y ( ? ) MD-2 was incubated for 30 min, 37° C. with (1:1 vol/vol) [^14C]-LOS-sCD14 in HBSS+, 10 mM HEPES and chromatographed on Sephacryl S100. Column fractions were analyzed for [^14C]-LOS. Identical results were obtained in analytical (5 ng [^14C]-LOS/ml+200 μl culture medium) or more preparative runs (reagents concentrated 20×). […] Cell activation was measured by IL-8 accumulation. […]
Purified [^14C]-LOSagg or [^14C]-LOS-sCD14 (3 ng LOS/ml)+/−indicated proteins (30 ng/ml LBP, 250 ng/ml sCD14, 60 μl culture medium) were incubated at 37° C. for 30 min. After this incubation, samples were analyzed by gel filtration chromatography to monitor formation of [^14C]-LOS-MD-2 and by incubation with HEK/TLR4 cells to measure cell activation.
Columns of Sephacryl HR S200 (1.6 cm×30 cm) or S100 (1.0 cm×60 cm) were pre-equilibrated in 10 mM HEPES, HBSS^++/−0.1% HSA. […] Aliquots of the collected fractions were analyzed by liquid scintillation spectroscopy using a Beckman LS liquid scintillation counter to detect [^14C]-LOS. […]

CCCCCCCCCCCCCC(=O)O[C@@H]1[C@@H](C)[C@@]2(O)[C@@H](C=C(CO)C[C@]3(O)C(=O)C(C)=C[C@@H]23)[C@@H]2C(C)(C)[C@]12OC(C)=O [phorbol myristate acetate, reference compound]
steady state MD-2 mRNA levels (human airway epithelia [1]): induced

IL-1β: human recombinant IL-1β, positive control [reference compound]
increase in HBD-2 expression (human airway epithelia [2]): > 10,000 fold

B1: P6: outer membrane protein P6 from non-typeable Haemophilus influenzae (protein, UniProt P10324 20-153, looked up)
Peptidoglycan-associated …: CSSSNNDAAGNGAAQTFGGYSVADLQQRYNTVYFGFDKYDITGEYVQILDAHAAYLNATPAAKVLVEGNTDERGTPEYNIALGQRRADAVKGYLAGKGVDAGKLGTVSYGEEKPAVLGHDEAAYSKNRRAVLAY
steady state MD-2 mRNA levels (human airway epithelia [1]): marked increases

B2: C95Y MD-2 (protein)
chain: QKQYWVCNSSDASISYTYCDKMQYPISINVNPCIELKRSKGLLHIFYIPRRDLKQLYFNLYITVNTMNLPKRKEVIYRGSDDDYSFCRALKGETVNTTISFSFKGIKFSKGKYKCVVEAISGSPEEMLFCLEFVILHQPNSNHHHHHH
activation of HEK/TLR4 cells by LOS-sCD14 (or LOSagg+LBP+sCD14) on addition of medium containing MD-2 (TLR4; IL-8 release, LOS-sCD14 2 ng LOS/ml): not seen | inhibition of activation of HEK/TLR4 by [^14C]-LOS-MD-2 by added MD-2 (TLR4; [^14C]-LOS-MD-2 0.3 ng/ml, increasing amounts of conditioned medium): intermediate inhibitory effect | reaction with [^14C]-LOS-sCD14 to generate new Mr˜25,000 [^14C]-LOS-containing complex (MD-2): no change

Source: patent publication US7164008B2, “Isolated complexes of endotoxin and MD-2” (priority 2003, dated 2007)
